The target of series [1] is YAP1 Recombinant Protein (Abnova H00010413-P01), P46937.
For series [2], the target named is T1, GST-MOB1 (GST fusion of MOB1, from pGEX-HA-MOB1), Q9H8S9.
T1 chain: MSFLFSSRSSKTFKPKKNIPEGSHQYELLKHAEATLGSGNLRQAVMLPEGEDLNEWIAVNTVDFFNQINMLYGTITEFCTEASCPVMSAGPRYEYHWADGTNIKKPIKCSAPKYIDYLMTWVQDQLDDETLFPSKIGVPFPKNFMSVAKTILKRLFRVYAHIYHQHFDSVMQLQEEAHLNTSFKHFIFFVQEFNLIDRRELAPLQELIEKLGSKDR

B1: active recombinant human FAK (catalytic domain, FAK-C) (protein)
chain: ETDDYAEIIDEEDTYTMPSTRDYEIQRERIELGRCIGEGQFGDVHQGIYMSPENPALAVAIKTCKNCTSDSVREKFLQEALTMRQFDHPHIVKLIGVITENPVWIIMELCTLGELRSFLQVRKYSLDLASLILYAYQLSTALAYLESKRFVHRDIAARNVLVSSNDCVKLGDFGLSRYMEDSTYYKASKGKLPIKWMAPESINFRRFTSASDVWMFGVCMWEILMHGVKPFQGVKNNDVIGRIENGERLPMPPNCPPTLYSLMTKCWAYDPSRRPRFTELKAQLSTILEEEKAQQEERMRMESRRQ
For the protein B1, the “YAP Y357 phosphorylation in an in vitro kinase reaction (immunoblot)” value in series [1] is “FAK was able to phosphorylate YAP at Y357 in vitro”. Further, in series [2], the “Y26 phosphorylation of GST-MOB1 in an in vitro kinase reaction (immunoblot)” value was “FAK was able to directly phosphorylate MOB1 on its Y26 by in vitro kinase reaction using purified recombinant proteins”.

Source of the values: patent publication US20200323863.
